Laboratory results as given in the supplement of paper PMC10567573.

B1: HDAC6 (parent)
chain: QEGLLDRCVSFQARFAEKEELMLV

Variants of: B1
Assay: protein stability index of a GFP-peptide fusion (GPS, HEK-293T) (PSI 1-6); higher = more stable
Conditions: c terminus: a fixed tail appended
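Note: lentivirally expressed fusions sorted by FACS into six bins by GFP to DsRed ratio, PSI derived from sequencing read proportions per bin multiplied by bin number.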

Compared with QEGLLDYCVSFQARFAEKEELMLV, QEGLLDRAVSFQARFAEKEELMLV is higher in protein stability index: 1.66 for the first, 1.97 for the second.

First: QEGLLDRDVSFQARFAEKEELMLV
Second: QEGLLDREVSFQARFAEKEELMLV
The protein stability index of the first is lower: 1.77 for the first, 2.04 for the second.

Compared with QEGLLDRFVSFQARFAEKEELMLV, QEGLLDRGVSFQARFAEKEELMLV is higher in protein stability index: 1.61 for the first, 2.61 for the second.

First: QEGLLDRHVSFQARFAEKEELMLV
Second: QEGLLDRIVSFQARFAEKEELMLV
The protein stability index of the first is higher: 1.93 for the first, 1.67 for the second.

First: QEGLLDRKVSFQARFAEKEELMLV
Second: QEGLLDRLVSFQARFAEKEELMLV
The protein stability index of the first is higher: 2.45 for the first, 1.57 for the second.

Going from QEGLLDRMVSFQARFAEKEELMLV to QEGLLDRNVSFQARFAEKEELMLV, the protein stability index falls from 1.98 to 1.9.

Going from QEGLLDRPVSFQARFAEKEELMLV to QEGLLDRQVSFQARFAEKEELMLV, the protein stability index rises from 1.87 to 2.12.

Going from QEGLLDRRVSFQARFAEKEELMLV to QEGLLDRSVSFQARFAEKEELMLV, the protein stability index rises from 1.98 to 2.44.

Going from QEGLLDRTVSFQARFAEKEELMLV to QEGLLDRVVSFQARFAEKEELMLV, the protein stability index falls from 2.27 to 2.17.

Compared with QEGLLDRWVSFQARFAEKEELMLV, QEGLLDRYVSFQARFAEKEELMLV is higher in protein stability index: 1.62 for the first, 4.19 for the second.

Going from QEGLLDRCASFQARFAEKEELMLV to QEGLLDRCCSFQARFAEKEELMLV, the protein stability index rises from 1.71 to 2.18.

First: QEGLLDRCDSFQARFAEKEELMLV
Second: QEGLLDRCESFQARFAEKEELMLV
The protein stability index of the first is lower: 2.29 for the first, 2.35 for the second.

Compared with QEGLLDRCFSFQARFAEKEELMLV, QEGLLDRCGSFQARFAEKEELMLV is higher in protein stability index: 1.63 for the first, 1.9 for the second.

Compared with QEGLLDRCHSFQARFAEKEELMLV, QEGLLDRCISFQARFAEKEELMLV is higher in protein stability index: 1.94 for the first, 2.44 for the second.

Compared with QEGLLDRCKSFQARFAEKEELMLV, QEGLLDRCLSFQARFAEKEELMLV is lower in protein stability index: 2.34 for the first, 1.74 for the second.

First: QEGLLDRCMSFQARFAEKEELMLV
Second: QEGLLDRCNSFQARFAEKEELMLV
The protein stability index of the first is lower: 2.57 for the first, 2.58 for the second.

Going from QEGLLDRCPSFQARFAEKEELMLV to QEGLLDRCQSFQARFAEKEELMLV, the protein stability index rises from 2.36 to 2.7.

First: QEGLLDRCRSFQARFAEKEELMLV
Second: QEGLLDRCSSFQARFAEKEELMLV
The protein stability index of the first is lower: 2 for the first, 2.84 for the second.

Going from QEGLLDRCTSFQARFAEKEELMLV to QEGLLDRCWSFQARFAEKEELMLV, the protein stability index falls from 2.07 to 1.79.

First: QEGLLDRCYSFQARFAEKEELMLV
Second: QEGLLDRCVAFQARFAEKEELMLV
The protein stability index of the first is lower: 2.29 for the first, 2.5 for the second.

Going from QEGLLDRCVCFQARFAEKEELMLV to QEGLLDRCVDFQARFAEKEELMLV, the protein stability index rises from 1.77 to 2.19.

First: QEGLLDRCVEFQARFAEKEELMLV
Second: QEGLLDRCVFFQARFAEKEELMLV
The protein stability index of the first is higher: 2.17 for the first, 1.83 for the second.

First: QEGLLDRCVGFQARFAEKEELMLV
Second: QEGLLDRCVHFQARFAEKEELMLV
The protein stability index of the first is higher: 1.82 for the first, 1.75 for the second.

Going from QEGLLDRCVIFQARFAEKEELMLV to QEGLLDRCVKFQARFAEKEELMLV, the protein stability index rises from 1.77 to 2.13.

Going from QEGLLDRCVLFQARFAEKEELMLV to QEGLLDRCVMFQARFAEKEELMLV, the protein stability index falls from 1.89 to 1.64.

Compared with QEGLLDRCVNFQARFAEKEELMLV, QEGLLDRCVPFQARFAEKEELMLV is higher in protein stability index: 1.66 for the first, 1.99 for the second.

Going from QEGLLDRCVQFQARFAEKEELMLV to QEGLLDRCVRFQARFAEKEELMLV, the protein stability index rises from 2.1 to 2.37.

First: QEGLLDRCVTFQARFAEKEELMLV
Second: QEGLLDRCVVFQARFAEKEELMLV
The protein stability index of the first is higher: 2.31 for the first, 1.45 for the second.

Going from QEGLLDRCVWFQARFAEKEELMLV to QEGLLDRCVYFQARFAEKEELMLV, the protein stability index rises from 1.86 to 2.56.

Compared with QEGLLDRCVSAQARFAEKEELMLV, QEGLLDRCVSCQARFAEKEELMLV is higher in protein stability index: 2.35 for the first, 3.17 for the second.

Compared with QEGLLDRCVSDQARFAEKEELMLV, QEGLLDRCVSEQARFAEKEELMLV is higher in protein stability index: 3.01 for the first, 3.09 for the second.

Compared with QEGLLDRCVSGQARFAEKEELMLV, QEGLLDRCVSHQARFAEKEELMLV is lower in protein stability index: 2.43 for the first, 2.37 for the second.

Going from QEGLLDRCVSIQARFAEKEELMLV to QEGLLDRCVSKQARFAEKEELMLV, the protein stability index rises from 2 to 2.33.

Going from QEGLLDRCVSLQARFAEKEELMLV to QEGLLDRCVSMQARFAEKEELMLV, the protein stability index rises from 1.71 to 2.17.

First: QEGLLDRCVSNQARFAEKEELMLV
Second: QEGLLDRCVSPQARFAEKEELMLV
The protein stability index of the first is higher: 2.93 for the first, 2.73 for the second.

First: QEGLLDRCVSQQARFAEKEELMLV
Second: QEGLLDRCVSRQARFAEKEELMLV
The protein stability index of the first is lower: 2.1 for the first, 2.66 for the second.

First: QEGLLDRCVSSQARFAEKEELMLV
Second: QEGLLDRCVSTQARFAEKEELMLV
The protein stability index of the first is lower: 2.53 for the first, 2.83 for the second.

Compared with QEGLLDRCVSVQARFAEKEELMLV, QEGLLDRCVSWQARFAEKEELMLV is lower in protein stability index: 2.17 for the first, 1.75 for the second.

Going from QEGLLDRCVSYQARFAEKEELMLV to QEGLLDRCVSFAARFAEKEELMLV, the protein stability index falls from 2.03 to 1.66.

Going from QEGLLDRCVSFCARFAEKEELMLV to QEGLLDRCVSFDARFAEKEELMLV, the protein stability index falls from 2.1 to 1.87.

Going from QEGLLDRCVSFEARFAEKEELMLV to QEGLLDRCVSFFARFAEKEELMLV, the protein stability index falls from 1.83 to 1.69.

Compared with QEGLLDRCVSFGARFAEKEELMLV, QEGLLDRCVSFHARFAEKEELMLV is higher in protein stability index: 2.77 for the first, 2.81 for the second.

Compared with QEGLLDRCVSFIARFAEKEELMLV, QEGLLDRCVSFKARFAEKEELMLV is lower in protein stability index: 2.57 for the first, 2 for the second.

Compared with QEGLLDRCVSFLARFAEKEELMLV, QEGLLDRCVSFMARFAEKEELMLV is higher in protein stability index: 1.52 for the first, 2.02 for the second.

Going from QEGLLDRCVSFNARFAEKEELMLV to QEGLLDRCVSFPARFAEKEELMLV, the protein stability index falls from 2.65 to 2.47.

Compared with QEGLLDRCVSFRARFAEKEELMLV, QEGLLDRCVSFSARFAEKEELMLV is higher in protein stability index: 1.58 for the first, 1.6 for the second.

First: QEGLLDRCVSFTARFAEKEELMLV
Second: QEGLLDRCVSFVARFAEKEELMLV
The protein stability index of the first is higher: 1.99 for the first, 1.14 for the second.
